This note sets out measurements from the supplement of paper PMC11811203.

The chains are these.
B1: THAP1; numbered along this chain (parent)
chain: MVQSCSAYGCKNRYDKDKPVSFHKFPLTRPSLCKEWEAAVRRKNFKPTKYSSICSEHFTPDCFKRECNNKLLKENAVPTIFLCTEPHDKKEDLLEPQEQLPPPPLPPPVSQVDAAIGLLMPPLQTPVNLSVFCDHNYTVEDTMHQRKRIHQLEQQVEKLRKKLKTAQQRCRRQERQLEKLKEVVHFQKEKDDVSERGYVILPNDYFEIVEVPA

Variants of B1 are the subject of the data set. In words: THAP1 transcriptional activity (GFP+/GFP- enrichment relative to wild-type constructs) (ratio to WT); higher = more THAP1 activity (PSMB5 reporter activation). The conditions noted are these: with PSMB5 promoter-GFP reporter. An outline of the steps:
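In duplicate, a lentivirus-delivered library with every residue from 2–213 of human THAP1 changed to all 20 amino acids was introduced at MOI ~0.3 into THAP1-knockout HEK-293T cells carrying endogenous PSMB5 tagged by mClover3 knock-in. Five days on, BFP+ cells were binned as GFP-dim or GFP-bright, and Illumina sequencing of genomic DNA amplicons counted each variant. Activity is the bright/dim read fold change, averaged over replicates and scaled to the mean of wild-type synonymous constructs.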
Regarding MVQSCSAYGCKNRYDKDKPVSFHKFPLTRPSLCKEWEAAVRRKNFKPTKYSSICSEHFTPWCFKRECNNKLLKENAVPTIFLCTEPHDKKEDLLEPQEQLPPPPLPPPVSQVDAAIGLLMPPLQTPVNLSVFCDHNYTVEDTMHQRKRIHQLEQQVEKLRKKLKTAQQRCRRQERQLEKLKEVVHFQKEKDDVSERGYVILPNDYFEIVEVPA [D61W], the THAP1 transcriptional activity is 0.145.
Regarding MVQSCSAYGCKNRYDKDKPVSFHKFPLTRPSLCKEWEAAVRRKNFKPTKYSSICSEHFTPYCFKRECNNKLLKENAVPTIFLCTEPHDKKEDLLEPQEQLPPPPLPPPVSQVDAAIGLLMPPLQTPVNLSVFCDHNYTVEDTMHQRKRIHQLEQQVEKLRKKLKTAQQRCRRQERQLEKLKEVVHFQKEKDDVSERGYVILPNDYFEIVEVPA [D61Y], the THAP1 transcriptional activity was 0.127.
As to MVQSCSAYGCKNRYDKDKPVSFHKFPLTRPSLCKEWEAAVRRKNFKPTKYSSICSEHFTPVCFKRECNNKLLKENAVPTIFLCTEPHDKKEDLLEPQEQLPPPPLPPPVSQVDAAIGLLMPPLQTPVNLSVFCDHNYTVEDTMHQRKRIHQLEQQVEKLRKKLKTAQQRCRRQERQLEKLKEVVHFQKEKDDVSERGYVILPNDYFEIVEVPA [D61V], the THAP1 transcriptional activity stood at 0.101.
MVQSCSAYGCKNRYDKDKPVSFHKFPLTRPSLCKEWEAAVRRKNFKPTKYSSICSEHFTPDCIKRECNNKLLKENAVPTIFLCTEPHDKKEDLLEPQEQLPPPPLPPPVSQVDAAIGLLMPPLQTPVNLSVFCDHNYTVEDTMHQRKRIHQLEQQVEKLRKKLKTAQQRCRRQERQLEKLKEVVHFQKEKDDVSERGYVILPNDYFEIVEVPA [F63I]: the THAP1 transcriptional activity turned out to be 0.134.
For the variant MVQSCSAYGCKNRYDKDKPVSFHKFPLTRPSLCKEWEAAVRRKNFKPTKYSSICSEHFTPDCGKRECNNKLLKENAVPTIFLCTEPHDKKEDLLEPQEQLPPPPLPPPVSQVDAAIGLLMPPLQTPVNLSVFCDHNYTVEDTMHQRKRIHQLEQQVEKLRKKLKTAQQRCRRQERQLEKLKEVVHFQKEKDDVSERGYVILPNDYFEIVEVPA [F63G], the THAP1 transcriptional activity was 0.1.
MVQSCSAYGCKNRYDKDKPVSFHKFPLTRPSLCKEWEAAVRRKNFKPTKYSSICSEHFTPDCEKRECNNKLLKENAVPTIFLCTEPHDKKEDLLEPQEQLPPPPLPPPVSQVDAAIGLLMPPLQTPVNLSVFCDHNYTVEDTMHQRKRIHQLEQQVEKLRKKLKTAQQRCRRQERQLEKLKEVVHFQKEKDDVSERGYVILPNDYFEIVEVPA [F63E]: the THAP1 transcriptional activity came to 0.0925.
Under MVQSCSAYGCKNRYDKDKPVSFHKFPLTRPSLCKEWEAAVRRKNFKPTKYSSICSEHFTPDCAKRECNNKLLKENAVPTIFLCTEPHDKKEDLLEPQEQLPPPPLPPPVSQVDAAIGLLMPPLQTPVNLSVFCDHNYTVEDTMHQRKRIHQLEQQVEKLRKKLKTAQQRCRRQERQLEKLKEVVHFQKEKDDVSERGYVILPNDYFEIVEVPA [F63A] stands 0.117.
As to MVQSCSAYGCKNRYDKDKPVSFHKFPLTRPSLCKEWEAAVRRKNFKPTKYSSICSEHFTPDCDKRECNNKLLKENAVPTIFLCTEPHDKKEDLLEPQEQLPPPPLPPPVSQVDAAIGLLMPPLQTPVNLSVFCDHNYTVEDTMHQRKRIHQLEQQVEKLRKKLKTAQQRCRRQERQLEKLKEVVHFQKEKDDVSERGYVILPNDYFEIVEVPA [F63D], the THAP1 transcriptional activity is 0.063.
As to MVQSCSAYGCKNRYDKDKPVSFHKFPLTRPSLCKEWEAAVRRKNFKPTKYSSICSEHFTPDCCKRECNNKLLKENAVPTIFLCTEPHDKKEDLLEPQEQLPPPPLPPPVSQVDAAIGLLMPPLQTPVNLSVFCDHNYTVEDTMHQRKRIHQLEQQVEKLRKKLKTAQQRCRRQERQLEKLKEVVHFQKEKDDVSERGYVILPNDYFEIVEVPA [F63C], the THAP1 transcriptional activity turned out to be 0.139.
Regarding MVQSCSAYGCKNRYDKDKPVSFHKFPLTRPSLCKEWEAAVRRKNFKPTKYSSICSEHFTPDCHKRECNNKLLKENAVPTIFLCTEPHDKKEDLLEPQEQLPPPPLPPPVSQVDAAIGLLMPPLQTPVNLSVFCDHNYTVEDTMHQRKRIHQLEQQVEKLRKKLKTAQQRCRRQERQLEKLKEVVHFQKEKDDVSERGYVILPNDYFEIVEVPA [F63H], the THAP1 transcriptional activity stood at 0.0911.
Consider MVQSCSAYGCKNRYDKDKPVSFHKFPLTRPSLCKEWEAAVRRKNFKPTKYSSICSEHFTPDEFKRECNNKLLKENAVPTIFLCTEPHDKKEDLLEPQEQLPPPPLPPPVSQVDAAIGLLMPPLQTPVNLSVFCDHNYTVEDTMHQRKRIHQLEQQVEKLRKKLKTAQQRCRRQERQLEKLKEVVHFQKEKDDVSERGYVILPNDYFEIVEVPA [C62E], for which the THAP1 transcriptional activity stood at 0.143.
As to MVQSCSAYGCKNRYDKDKPVSFHKFPLTRPSLCKEWEAAVRRKNFKPTKYSSICSEHFTPDKFKRECNNKLLKENAVPTIFLCTEPHDKKEDLLEPQEQLPPPPLPPPVSQVDAAIGLLMPPLQTPVNLSVFCDHNYTVEDTMHQRKRIHQLEQQVEKLRKKLKTAQQRCRRQERQLEKLKEVVHFQKEKDDVSERGYVILPNDYFEIVEVPA [C62K], the THAP1 transcriptional activity is 0.21.
Under MVQSCSAYGCKNRYDKDKPVSFHKFPLTRPSLCKEWEAAVRRKNFKPTKYSSICSEHFTPDNFKRECNNKLLKENAVPTIFLCTEPHDKKEDLLEPQEQLPPPPLPPPVSQVDAAIGLLMPPLQTPVNLSVFCDHNYTVEDTMHQRKRIHQLEQQVEKLRKKLKTAQQRCRRQERQLEKLKEVVHFQKEKDDVSERGYVILPNDYFEIVEVPA [C62N] stands 0.487; under MVQSCSAYGCKNRYDKDKPVSFHKFPLTRPSLCKEWEAAVRRKNFKPTKYSSICSEHFTPDHFKRECNNKLLKENAVPTIFLCTEPHDKKEDLLEPQEQLPPPPLPPPVSQVDAAIGLLMPPLQTPVNLSVFCDHNYTVEDTMHQRKRIHQLEQQVEKLRKKLKTAQQRCRRQERQLEKLKEVVHFQKEKDDVSERGYVILPNDYFEIVEVPA [C62H], 0.173.
MVQSCSAYGCKNRYDKDKPVSFHKFPLTRPSLCKEWEAAVRRKNFKPTKYSSICSEHFTPDWFKRECNNKLLKENAVPTIFLCTEPHDKKEDLLEPQEQLPPPPLPPPVSQVDAAIGLLMPPLQTPVNLSVFCDHNYTVEDTMHQRKRIHQLEQQVEKLRKKLKTAQQRCRRQERQLEKLKEVVHFQKEKDDVSERGYVILPNDYFEIVEVPA [C62W]: the THAP1 transcriptional activity stood at 0.113.
In the case of MVQSCSAYGCKNRYDKDKPVSFHKFPLTRPSLCKEWEAAVRRKNFKPTKYSSICSEHFTPDQFKRECNNKLLKENAVPTIFLCTEPHDKKEDLLEPQEQLPPPPLPPPVSQVDAAIGLLMPPLQTPVNLSVFCDHNYTVEDTMHQRKRIHQLEQQVEKLRKKLKTAQQRCRRQERQLEKLKEVVHFQKEKDDVSERGYVILPNDYFEIVEVPA [C62Q], the THAP1 transcriptional activity was 0.74.
On to MVQSCSAYGCKNRYDKDKPVSFHKFPLTRPSLCKEWEAAVRRKNFKPTKYSSICSEHFTPDIFKRECNNKLLKENAVPTIFLCTEPHDKKEDLLEPQEQLPPPPLPPPVSQVDAAIGLLMPPLQTPVNLSVFCDHNYTVEDTMHQRKRIHQLEQQVEKLRKKLKTAQQRCRRQERQLEKLKEVVHFQKEKDDVSERGYVILPNDYFEIVEVPA [C62I], for which the THAP1 transcriptional activity came out at 0.09.
For MVQSCSAYGCKNRYDKDKPVSFHKFPLTRPSLCKEWEAAVRRKNFKPTKYSSICSEHFTPDRFKRECNNKLLKENAVPTIFLCTEPHDKKEDLLEPQEQLPPPPLPPPVSQVDAAIGLLMPPLQTPVNLSVFCDHNYTVEDTMHQRKRIHQLEQQVEKLRKKLKTAQQRCRRQERQLEKLKEVVHFQKEKDDVSERGYVILPNDYFEIVEVPA [C62R], the THAP1 transcriptional activity was 0.181.
On to MVQSCSAYGCKNRYDKDKPVSFHKFPLTRPSLCKEWEAAVRRKNFKPTKYSSICSEHFTPDPFKRECNNKLLKENAVPTIFLCTEPHDKKEDLLEPQEQLPPPPLPPPVSQVDAAIGLLMPPLQTPVNLSVFCDHNYTVEDTMHQRKRIHQLEQQVEKLRKKLKTAQQRCRRQERQLEKLKEVVHFQKEKDDVSERGYVILPNDYFEIVEVPA [C62P], for which the THAP1 transcriptional activity is 0.0987.
Under MVQSCSAYGCKNRYDKDKPVSFHKFPLTRPSLCKEWEAAVRRKNFKPTKYSSICSEHFTPDMFKRECNNKLLKENAVPTIFLCTEPHDKKEDLLEPQEQLPPPPLPPPVSQVDAAIGLLMPPLQTPVNLSVFCDHNYTVEDTMHQRKRIHQLEQQVEKLRKKLKTAQQRCRRQERQLEKLKEVVHFQKEKDDVSERGYVILPNDYFEIVEVPA [C62M] stands 0.591.
On to MVQSCSAYGCKNRYDKDKPVSFHKFPLTRPSLCKEWEAAVRRKNFKPTKYSSICSEHFTPDYFKRECNNKLLKENAVPTIFLCTEPHDKKEDLLEPQEQLPPPPLPPPVSQVDAAIGLLMPPLQTPVNLSVFCDHNYTVEDTMHQRKRIHQLEQQVEKLRKKLKTAQQRCRRQERQLEKLKEVVHFQKEKDDVSERGYVILPNDYFEIVEVPA [C62Y], for which the THAP1 transcriptional activity worked out at 0.141.
As for MVQSCSAYGCKNRYDKDKPVSFHKFPLTRPSLCKEWEAAVRRKNFKPTKYSSICSEHFTPDGFKRECNNKLLKENAVPTIFLCTEPHDKKEDLLEPQEQLPPPPLPPPVSQVDAAIGLLMPPLQTPVNLSVFCDHNYTVEDTMHQRKRIHQLEQQVEKLRKKLKTAQQRCRRQERQLEKLKEVVHFQKEKDDVSERGYVILPNDYFEIVEVPA [C62G], the THAP1 transcriptional activity was 0.113.
Consider MVQSCSAYGCKNRYDKDKPVSFHKFPLTRPSLCKEWEAAVRRKNFKPTKYSSICSEHFTPDFFKRECNNKLLKENAVPTIFLCTEPHDKKEDLLEPQEQLPPPPLPPPVSQVDAAIGLLMPPLQTPVNLSVFCDHNYTVEDTMHQRKRIHQLEQQVEKLRKKLKTAQQRCRRQERQLEKLKEVVHFQKEKDDVSERGYVILPNDYFEIVEVPA [C62F], for which the THAP1 transcriptional activity was 0.151.
As to MVQSCSAYGCKNRYDKDKPVSFHKFPLTRPSLCKEWEAAVRRKNFKPTKYSSICSEHFTPDDFKRECNNKLLKENAVPTIFLCTEPHDKKEDLLEPQEQLPPPPLPPPVSQVDAAIGLLMPPLQTPVNLSVFCDHNYTVEDTMHQRKRIHQLEQQVEKLRKKLKTAQQRCRRQERQLEKLKEVVHFQKEKDDVSERGYVILPNDYFEIVEVPA [C62D], the THAP1 transcriptional activity stood at 1.01.
On to MVQSCSAYGCKNRYDKDKPVSFHKFPLTRPSLCKEWEAAVRRKNFKPTKYSSICSEHFTPDTFKRECNNKLLKENAVPTIFLCTEPHDKKEDLLEPQEQLPPPPLPPPVSQVDAAIGLLMPPLQTPVNLSVFCDHNYTVEDTMHQRKRIHQLEQQVEKLRKKLKTAQQRCRRQERQLEKLKEVVHFQKEKDDVSERGYVILPNDYFEIVEVPA [C62T], for which the THAP1 transcriptional activity turned out to be 0.195.
With MVQSCSAYGCKNRYDKDKPVSFHKFPLTRPSLCKEWEAAVRRKNFKPTKYSSICSEHFTPDAFKRECNNKLLKENAVPTIFLCTEPHDKKEDLLEPQEQLPPPPLPPPVSQVDAAIGLLMPPLQTPVNLSVFCDHNYTVEDTMHQRKRIHQLEQQVEKLRKKLKTAQQRCRRQERQLEKLKEVVHFQKEKDDVSERGYVILPNDYFEIVEVPA [C62A], the THAP1 transcriptional activity is 0.523.
For the variant MVQSCSAYGCKNRYDKDKPVSFHKFPLTRPSLCKEWEAAVRRKNFKPTKYSSICSEHFTPDVFKRECNNKLLKENAVPTIFLCTEPHDKKEDLLEPQEQLPPPPLPPPVSQVDAAIGLLMPPLQTPVNLSVFCDHNYTVEDTMHQRKRIHQLEQQVEKLRKKLKTAQQRCRRQERQLEKLKEVVHFQKEKDDVSERGYVILPNDYFEIVEVPA [C62V], the THAP1 transcriptional activity is 0.0798.
As to MVQSCSAYGCKNRYDKDKPVSFHKFPLTRPSLCKEWEAAVRRKNFKPTKYSSICSEHFTPDSFKRECNNKLLKENAVPTIFLCTEPHDKKEDLLEPQEQLPPPPLPPPVSQVDAAIGLLMPPLQTPVNLSVFCDHNYTVEDTMHQRKRIHQLEQQVEKLRKKLKTAQQRCRRQERQLEKLKEVVHFQKEKDDVSERGYVILPNDYFEIVEVPA [C62S], the THAP1 transcriptional activity was determined as 1.72.
